Experimental data: patent US20220017863A1 (H LEE MOFFITT CANCER CENTER AND RESEARCH INSTITUTE, published 2022)

T1: alanine, serine, cysteine-preferring transporter 2 (ASCT2) (mouse, UniProt P51912 1-553)
T1 construct: Endogenous protein in lysate; also called Glutamine transporter ASCT2; ACST2
T1 sequence (looked up): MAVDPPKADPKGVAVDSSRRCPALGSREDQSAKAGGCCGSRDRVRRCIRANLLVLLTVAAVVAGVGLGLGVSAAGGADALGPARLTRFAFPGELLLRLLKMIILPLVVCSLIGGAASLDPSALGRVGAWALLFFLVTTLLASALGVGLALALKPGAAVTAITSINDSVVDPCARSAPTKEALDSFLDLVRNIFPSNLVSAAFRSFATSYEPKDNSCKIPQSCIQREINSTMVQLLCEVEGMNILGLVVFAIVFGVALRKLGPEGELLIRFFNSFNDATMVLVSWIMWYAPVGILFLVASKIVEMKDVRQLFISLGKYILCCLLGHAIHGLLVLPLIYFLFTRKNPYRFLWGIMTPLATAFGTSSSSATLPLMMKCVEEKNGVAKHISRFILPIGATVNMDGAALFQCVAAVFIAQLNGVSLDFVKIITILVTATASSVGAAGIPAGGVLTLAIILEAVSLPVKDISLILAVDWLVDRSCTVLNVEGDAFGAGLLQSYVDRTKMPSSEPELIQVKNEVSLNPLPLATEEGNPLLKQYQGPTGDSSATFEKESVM

T2: Hexokinase 1 (HK1) (mouse, UniProt P17710-3 1-918, limits assumed)
T2 construct: Endogenous protein in lysate
T2 sequence (looked up): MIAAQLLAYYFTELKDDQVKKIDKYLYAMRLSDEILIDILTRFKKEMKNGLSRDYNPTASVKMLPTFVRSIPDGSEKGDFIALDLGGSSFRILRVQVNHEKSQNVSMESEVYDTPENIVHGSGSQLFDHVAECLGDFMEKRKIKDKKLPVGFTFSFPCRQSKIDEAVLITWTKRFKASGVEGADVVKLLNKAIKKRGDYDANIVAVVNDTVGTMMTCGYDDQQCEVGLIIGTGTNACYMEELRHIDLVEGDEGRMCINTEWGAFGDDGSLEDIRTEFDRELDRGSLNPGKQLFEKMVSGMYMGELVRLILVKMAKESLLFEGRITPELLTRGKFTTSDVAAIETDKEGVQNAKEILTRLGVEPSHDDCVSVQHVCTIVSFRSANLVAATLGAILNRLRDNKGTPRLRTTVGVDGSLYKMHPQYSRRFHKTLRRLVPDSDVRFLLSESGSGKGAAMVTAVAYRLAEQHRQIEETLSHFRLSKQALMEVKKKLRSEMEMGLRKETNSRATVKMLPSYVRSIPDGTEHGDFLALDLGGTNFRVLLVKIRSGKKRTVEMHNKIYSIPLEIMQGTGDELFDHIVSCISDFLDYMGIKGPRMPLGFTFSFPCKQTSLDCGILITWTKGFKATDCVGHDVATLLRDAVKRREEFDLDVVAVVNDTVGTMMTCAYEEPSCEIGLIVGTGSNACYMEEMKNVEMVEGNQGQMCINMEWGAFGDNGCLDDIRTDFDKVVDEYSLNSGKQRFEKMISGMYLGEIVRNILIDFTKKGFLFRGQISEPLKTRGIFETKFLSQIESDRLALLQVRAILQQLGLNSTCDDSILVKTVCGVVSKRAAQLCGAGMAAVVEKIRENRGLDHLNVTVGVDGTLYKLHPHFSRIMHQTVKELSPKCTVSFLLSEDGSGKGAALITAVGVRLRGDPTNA

T3: aconitase 2 (ACO2) (mouse, UniProt Q99KI0 28-780)
T3 sequence (looked up): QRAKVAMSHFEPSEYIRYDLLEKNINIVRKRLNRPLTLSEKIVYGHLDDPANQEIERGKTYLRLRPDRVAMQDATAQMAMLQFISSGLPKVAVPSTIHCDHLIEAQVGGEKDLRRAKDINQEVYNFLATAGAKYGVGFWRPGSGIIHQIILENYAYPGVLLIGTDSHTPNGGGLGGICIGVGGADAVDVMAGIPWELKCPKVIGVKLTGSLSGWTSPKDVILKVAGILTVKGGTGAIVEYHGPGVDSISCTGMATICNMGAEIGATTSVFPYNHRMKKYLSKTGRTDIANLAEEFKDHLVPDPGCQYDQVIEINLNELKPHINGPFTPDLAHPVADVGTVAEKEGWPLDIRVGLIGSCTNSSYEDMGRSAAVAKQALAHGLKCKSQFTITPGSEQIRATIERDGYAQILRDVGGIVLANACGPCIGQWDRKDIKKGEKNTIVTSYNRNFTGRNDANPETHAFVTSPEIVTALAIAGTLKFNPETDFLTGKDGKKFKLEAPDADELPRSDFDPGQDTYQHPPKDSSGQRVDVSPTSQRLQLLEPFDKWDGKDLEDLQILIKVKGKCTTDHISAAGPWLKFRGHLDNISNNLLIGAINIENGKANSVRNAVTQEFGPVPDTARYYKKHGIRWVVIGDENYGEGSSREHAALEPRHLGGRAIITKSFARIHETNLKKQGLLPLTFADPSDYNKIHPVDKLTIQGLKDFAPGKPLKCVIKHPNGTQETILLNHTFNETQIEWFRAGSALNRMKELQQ

T4: oxoglutarate dehydrogenase (OGDH) (mouse, UniProt Q60597 41-1023, limits assumed)
T4 construct: Endogenous protein in lysate
T4 sequence (looked up): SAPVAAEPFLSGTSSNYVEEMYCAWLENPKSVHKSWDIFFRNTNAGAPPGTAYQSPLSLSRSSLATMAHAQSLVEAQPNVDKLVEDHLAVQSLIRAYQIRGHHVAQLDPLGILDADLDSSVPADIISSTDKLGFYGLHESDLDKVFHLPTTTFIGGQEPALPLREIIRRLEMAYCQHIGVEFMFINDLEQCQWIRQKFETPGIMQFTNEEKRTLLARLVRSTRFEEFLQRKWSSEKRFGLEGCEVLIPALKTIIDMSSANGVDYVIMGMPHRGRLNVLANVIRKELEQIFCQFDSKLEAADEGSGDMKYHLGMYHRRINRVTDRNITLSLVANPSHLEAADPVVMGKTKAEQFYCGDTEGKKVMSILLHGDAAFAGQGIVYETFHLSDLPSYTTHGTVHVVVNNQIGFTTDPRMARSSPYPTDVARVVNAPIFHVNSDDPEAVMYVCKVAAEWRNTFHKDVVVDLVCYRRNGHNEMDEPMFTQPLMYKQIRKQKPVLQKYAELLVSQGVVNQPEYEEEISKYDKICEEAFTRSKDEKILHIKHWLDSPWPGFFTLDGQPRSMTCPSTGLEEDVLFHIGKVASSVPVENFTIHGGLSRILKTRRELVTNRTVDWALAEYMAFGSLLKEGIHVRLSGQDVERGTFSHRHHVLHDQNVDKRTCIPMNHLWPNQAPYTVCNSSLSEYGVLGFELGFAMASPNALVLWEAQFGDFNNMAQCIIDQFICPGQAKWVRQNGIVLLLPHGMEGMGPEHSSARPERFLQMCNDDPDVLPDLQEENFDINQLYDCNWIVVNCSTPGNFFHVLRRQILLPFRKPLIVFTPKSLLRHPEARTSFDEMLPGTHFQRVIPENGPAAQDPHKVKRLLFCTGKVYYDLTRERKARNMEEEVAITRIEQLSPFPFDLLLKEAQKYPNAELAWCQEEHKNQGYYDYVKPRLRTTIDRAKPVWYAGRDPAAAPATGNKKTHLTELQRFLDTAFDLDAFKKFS

T5: phosphofructokinase P (PFKP) (mouse, UniProt Q9WUA3 1-784)
T5 sequence (looked up): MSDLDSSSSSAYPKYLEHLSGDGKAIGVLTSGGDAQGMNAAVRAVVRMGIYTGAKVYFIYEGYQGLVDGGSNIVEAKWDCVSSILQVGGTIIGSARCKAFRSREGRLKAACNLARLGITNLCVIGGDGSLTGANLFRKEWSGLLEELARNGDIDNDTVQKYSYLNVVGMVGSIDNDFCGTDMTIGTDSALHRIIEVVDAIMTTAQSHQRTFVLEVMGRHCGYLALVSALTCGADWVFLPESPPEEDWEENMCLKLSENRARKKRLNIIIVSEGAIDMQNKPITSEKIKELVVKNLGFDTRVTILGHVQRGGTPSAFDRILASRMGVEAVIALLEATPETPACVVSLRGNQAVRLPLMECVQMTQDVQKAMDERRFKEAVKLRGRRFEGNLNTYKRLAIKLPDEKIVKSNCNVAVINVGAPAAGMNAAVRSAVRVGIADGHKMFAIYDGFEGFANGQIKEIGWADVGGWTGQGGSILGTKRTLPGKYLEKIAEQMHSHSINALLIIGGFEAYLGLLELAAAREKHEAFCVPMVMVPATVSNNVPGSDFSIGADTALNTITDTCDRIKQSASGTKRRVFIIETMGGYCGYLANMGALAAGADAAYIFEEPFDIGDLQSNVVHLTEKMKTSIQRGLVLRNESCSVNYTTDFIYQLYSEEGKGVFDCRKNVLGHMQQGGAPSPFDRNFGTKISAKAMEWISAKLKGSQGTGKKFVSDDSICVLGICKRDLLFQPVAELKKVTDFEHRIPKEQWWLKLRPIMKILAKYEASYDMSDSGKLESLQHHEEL

T6: phosphoglycerate kinase 1 (PGK1) (mouse, UniProt P09411 2-417)
T6 sequence (looked up): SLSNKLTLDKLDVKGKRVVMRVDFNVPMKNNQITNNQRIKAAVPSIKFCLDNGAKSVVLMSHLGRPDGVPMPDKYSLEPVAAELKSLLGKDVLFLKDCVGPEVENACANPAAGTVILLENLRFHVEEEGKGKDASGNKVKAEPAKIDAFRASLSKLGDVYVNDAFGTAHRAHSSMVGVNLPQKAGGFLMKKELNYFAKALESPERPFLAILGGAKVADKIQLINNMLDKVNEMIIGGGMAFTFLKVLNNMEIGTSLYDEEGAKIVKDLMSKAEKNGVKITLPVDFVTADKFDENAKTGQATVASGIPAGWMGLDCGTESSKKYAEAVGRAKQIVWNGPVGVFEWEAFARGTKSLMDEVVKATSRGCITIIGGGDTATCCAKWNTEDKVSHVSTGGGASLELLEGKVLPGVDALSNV

B1: Sirt2 (enzyme, mouse, UniProt Q8VDQ8 2-389, looked up)
chain: AEPDPSDPLETQAGKVQEAQDSDSDTEGGATGGEAEMDFLRNLFTQTLGLGSQKERLLDELTLEGVTRYMQSERCRKVICLVGAGISTSAGIPDFRSPSTGLYANLEKYHLPYPEAIFEISYFKKHPEPFFALAKELYPGQFKPTICHYFIRLLKEKGLLLRCYTQNIDTLERVAGLEPQDLVEAHGTFYTSHCVNTSCRKEYTMGWMKEKIFSEATPRCEQCQSVVKPDIVFFGENLPSRFFSCMQSDFSKVDLLIIMGTSLQVQPFASLISKAPLATPRLLINKEKTGQTDPFLGMMMGLGGGMDFDSKKAYRDVAWLGDCDQGCLALADLLGWKKELEDLVRREHANIDAQSGSQAPNPSTTISPGKSPPPAKEAARTKEKEEQQ
notes: Endogenous protein immunoprecipitated from T cell lysates with anti-Sirt2 (Sigma #9441); also called Sirtuin 2

Key:
Sirt2 = target: B1; experiment: co-IP/immunoblot and reverse co-IP/immunoblot, activated WT mouse CD3+ T cell extracts
[1] = target: succinate dehydrogenase subunit alpha (SDHA) (mouse, UniProt Q8K2B3 43-664); experiment: IP of Sirt2, LC-MS/MS, activated WT mouse CD3+ T cell extracts
Sequence of succinate dehydrogenase subunit alpha (SDHA) (Q8K2B3 43-664 limits assumed): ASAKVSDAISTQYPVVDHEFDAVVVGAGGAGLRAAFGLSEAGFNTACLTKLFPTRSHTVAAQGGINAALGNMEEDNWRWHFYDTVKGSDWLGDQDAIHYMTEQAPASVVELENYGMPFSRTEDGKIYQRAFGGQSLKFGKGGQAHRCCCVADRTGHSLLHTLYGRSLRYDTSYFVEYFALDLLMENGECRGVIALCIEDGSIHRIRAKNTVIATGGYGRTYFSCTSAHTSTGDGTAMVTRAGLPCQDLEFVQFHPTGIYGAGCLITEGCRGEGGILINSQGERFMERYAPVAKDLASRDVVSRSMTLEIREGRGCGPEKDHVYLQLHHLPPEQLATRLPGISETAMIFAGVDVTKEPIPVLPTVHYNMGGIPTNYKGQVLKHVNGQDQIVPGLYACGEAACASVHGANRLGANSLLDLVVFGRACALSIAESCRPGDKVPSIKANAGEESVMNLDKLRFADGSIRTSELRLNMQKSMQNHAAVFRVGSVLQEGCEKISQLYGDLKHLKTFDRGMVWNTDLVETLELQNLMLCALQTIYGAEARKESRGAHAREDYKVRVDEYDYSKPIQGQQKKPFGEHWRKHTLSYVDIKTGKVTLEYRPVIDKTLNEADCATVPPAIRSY

[2] = target: T1, alanine, serine, cysteine-preferring …; experiment: as above
Hexokinase 1 (HK1) = target: T2, Hexokinase 1 (HK1); experiment: co-IP with anti-Sirt2, immunoblot, activated WT mouse CD3+ T cell extracts (FIG. 3B)
aconitase 2 (ACO2) = target: T3, aconitase 2 (ACO2); experiment: co-IP/immunoblot and reverse co-IP/immunoblot, activated WT mouse CD3+ T cell extracts
[3] = target: T4, oxoglutarate dehydrogenase (OGDH); experiment: as above
[4] = target: T5, phosphofructokinase P (PFKP); experiment: as above
[5] = target: T6, phosphoglycerate kinase 1 (PGK1); experiment: as above
pyruvate kinase M (PKM) = target: T7, pyruvate kinase M (PKM) (mouse, UniProt P52480 1-531, limits assumed); experiment: reverse co-IP with antibody to the enzyme, anti-Sirt2 immunoblot, activated WT mouse CD3+ T cell extracts (FIG. 3C)
T7 construct: also called PKM1/2; pyruvate kinase isozymes M1/M2
T7 sequence (P52480 whole entry): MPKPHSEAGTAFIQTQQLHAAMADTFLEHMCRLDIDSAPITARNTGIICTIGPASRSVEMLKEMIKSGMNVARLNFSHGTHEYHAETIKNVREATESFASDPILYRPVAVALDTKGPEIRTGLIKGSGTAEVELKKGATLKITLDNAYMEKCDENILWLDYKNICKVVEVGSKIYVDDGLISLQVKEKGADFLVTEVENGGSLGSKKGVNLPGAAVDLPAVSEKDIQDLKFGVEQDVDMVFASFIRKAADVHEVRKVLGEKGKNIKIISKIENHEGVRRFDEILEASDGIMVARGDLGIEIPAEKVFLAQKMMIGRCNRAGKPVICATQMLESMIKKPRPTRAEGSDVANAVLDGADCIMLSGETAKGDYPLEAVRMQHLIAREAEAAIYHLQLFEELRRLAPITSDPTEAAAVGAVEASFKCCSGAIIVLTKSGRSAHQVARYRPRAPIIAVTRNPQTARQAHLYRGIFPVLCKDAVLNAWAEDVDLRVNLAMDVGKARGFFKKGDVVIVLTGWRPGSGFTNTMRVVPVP

binding result (Sirt2)	binding result [1]	binding result [2]	binding result (Hexokinase 1 (HK1))	binding result (aconitase 2 (ACO2))	binding result [3]	binding result [4]	binding result [5]	binding result (pyruvate kinase M (PKM))	Binder
binds	–	–	–	–	–	–	–	–	succinate-CoA ligase alpha subunit (SUCLG1) (enzyme, also called succinyl-CoA ligase alpha subunit; Succinyl-CoA Ligase) not shown
–	binds	binds	binds	binds	binds	binds	binds	binds	B1
binds	–	–	–	–	–	–	–	–	aldolase A (ALDOA) (enzyme, mouse, UniProt P05064 2-364, looked up, also called Aldolase 1) PHPYPALTPEQKKELSDIAHRIVAPGKGILAADESTGSIAKRLQSIGTENTEENRRFYRQLLLTADDRVNPCIGGVILFHETLYQKADDGRPFPQVIKSKGGVVGIKVDKGVVPLAGTNGETTTQGLDGLSERCAQYKKDGADFAKWRCVLKIGEHTPSALAIMENANVLARYASICQQNGIVPIVEPEILPDGDHDLKRCQYVTEKVLAAVYKALSDHHVYLEGTLLKPNMVTPGHACTQKFSNEEIAMATVTALRRTVPPAVTGVTFLSGGQSEEEASINLNAINKCPLLKPWALTFSYGRALQASALKAWGGKKENLKAAQEEYIKRALANSLACQGKYTPSGQSGAAASESLFISNHAY
